± gives the uncertainty stated by the source.
Assay: self-splicing fitness, log relative to wild type (ln ratio); higher = more splicing; Tetrahymena group I intron in knt gene, E. coli kanamycin selection, DiMSum; sequences stand for … in CUCUCU…GGAGGGAAAAGUUAUCAGGCAUGCACCUGGUAGCUAGUCUUUAAACCAAUAGAUUGCAUCGGUUUAAAAGGCAAGACCGUCAAAUUGCGGGAAAGGGGUCAACAGCCGUUCAGUACCAAGUCUCAGGGGAAACUUUGAGAUGGCCUUGCAAAGGGUAUGGUAAUAAGCUGACGGACAUGGUCCUAACCACGCAGCCAAGUCCUAAGUCAACAGAUCUUCUGUUGAUAUGGAUGCAGUUCACAGACUAAAUGUCGGUCGGGGAAGAUGUAUUCUUCUCAUAAGAUAUAGUCGGACCUCUCCUUAAUGGGAGCUAGCGGAUGAAGUGAUGCAACACUGGAGCCGCUGGGAACUAAUUUGUAUGCGAAAGUAUAUUGAUUAGUUUUGGAGUACUCGUGGUCG
Summary of the method: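 A randomised library covering all eight P1ex-region intron nucleotides was built with the intron in the knt kanamycin-resistance gene on pET-22b(+) and held in E. coli BL21(DE3). Cells were grown overnight at 37°C or 30°C on LB agar, with or without 25 μg/mL kanamycin, plus 100 μg/mL carbenicillin, 50 μM IPTG and 0.2% rhamnose, and pooled colonies were amplicon-sequenced on an Illumina HiSeq 2500. DiMSum fitness is the error-weighted combination of wild-type-normalised replicate fold changes, kanamycin versus none.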

Sequence | self-splicing fitness (ln) (30 °C) | self-splicing fitness (ln) (37 °C)
GACGAGCAAUAUUACGUCAA | -3.11 ± 0.27 | –
GACGAGCAAUAUUACGUGAC | -2.77 ± 0.31 | -1.48 ± 0.26
GACGAGCAAUAUUACGUGGU | -2.84 ± 0.1 | -2.77 ± 0.14
GACUAGCAAUAUUACGAAAU | -1.07 ± 0.16 | 0.651 ± 0.26
GACUAGCAAUAUUACGACGC | 0.125 ± 0.1 | 0.0388 ± 0.14
GACUAGCAAUAUUACGAGAA | -1.29 ± 0.27 | -1.53 ± 0.17
GACUAGCAAUAUUACGAGAU | -2.93 ± 0.19 | -1.57 ± 0.21
GACUAGCAAUAUUACGCAUC | -3.16 ± 0.17 | -2.95 ± 0.22
GACUAGCAAUAUUACGCCAG | -1.31 ± 0.22 | –
GACUAGCAAUAUUACGCCCU | -9.77e-06 ± 0.2 | -0.315 ± 0.21
GACUAGCAAUAUUACGCGUU | – | -3.83 ± 0.39
GACUAGCAAUAUUACGCUGU | -3.22 ± 0.2 | -2.83 ± 0.28
GACUAGCAAUAUUACGCUUG | -1.96 ± 0.1 | -1.28 ± 0.13
GACUAGCAAUAUUACGGCGG | -3.72 ± 0.21 | -2.14 ± 0.13
GACUAGCAAUAUUACGGCUU | -0.318 ± 0.099 | 0.0615 ± 0.14
GACUAGCAAUAUUACGGGGA | -2.06 ± 0.11 | -0.995 ± 0.1
GACUAGCAAUAUUACGUCAC | -3.36 ± 0.4 | –
GACUAGCAAUAUUACGUGGA | -1.46 ± 0.13 | -1.07 ± 0.16
GACUAGCAAUAUUACGUGUG | -1.12 ± 0.055 | -0.793 ± 0.073
GACUAGCAAUAUUACGUUAG | -4.25 ± 0.23 | -3.17 ± 0.23
GACUAGCAAUAUUACGUUGA | -2.07 ± 0.21 | -1.59 ± 0.15
GACUAGCAAUAUUACGUUUU | -2.43 ± 0.095 | -1.42 ± 0.11
GAGAAGCAAUAUUACGAAGU | -2.98 ± 0.24 | -1.16 ± 0.27
GAGAAGCAAUAUUACGAGAC | -2.38 ± 0.3 | -2.64 ± 0.28
GAGAAGCAAUAUUACGAUAG | -3.28 ± 0.14 | -2.28 ± 0.17
GAGAAGCAAUAUUACGAUGG | -2.74 ± 0.16 | -1.69 ± 0.18
GAGAAGCAAUAUUACGAUGU | -1.12 ± 0.13 | -0.819 ± 0.21

Sequence | self-splicing fitness (ln) (30 °C) | self-splicing fitness (ln) (37 °C)
GAGAAGCAAUAUUACGCAGG | -2.26 ± 0.16 | -2.91 ± 0.2
GAGAAGCAAUAUUACGCGGC | -3.03 ± 0.23 | -0.0876 ± 0.18
GAGAAGCAAUAUUACGCGUU | -2.08 ± 0.23 | -0.752 ± 0.18
GAGAAGCAAUAUUACGGCCG | -0.178 ± 0.17 | -0.256 ± 0.34
GAGAAGCAAUAUUACGGCGU | -0.403 ± 0.12 | 0.0558 ± 0.16
GAGAAGCAAUAUUACGUAAU | -1.88 ± 0.1 | -0.98 ± 0.11
GAGAAGCAAUAUUACGUACG | -1.42 ± 0.1 | -0.572 ± 0.12
GAGAAGCAAUAUUACGUCGC | -2.17 ± 0.42 | –
GAGAAGCAAUAUUACGUUAA | -2.68 ± 0.2 | -2.18 ± 0.24
GAGAAGCAAUAUUACGUUUA | -2.13 ± 0.12 | -0.99 ± 0.12
GAGCAGCAAUAUUACGACAU | -1.29 ± 0.013 | -0.608 ± 0.033
GAGCAGCAAUAUUACGAUGA | -2.62 ± 0.25 | -1.03 ± 0.14
GAGCAGCAAUAUUACGCGCA | -0.638 ± 0.1 | 0.461 ± 0.12
GAGCAGCAAUAUUACGCGGA | -2.11 ± 0.11 | -0.965 ± 0.09
GAGCAGCAAUAUUACGGAAA | -3.08 ± 0.24 | -2.84 ± 0.21
GAGCAGCAAUAUUACGUCCA | -1.3 ± 0.3 | -0.418 ± 0.2
GAGCAGCAAUAUUACGUUGG | -0.945 ± 0.19 | -2.43 ± 0.23
GAGGAGCAAUAUUACGACUU | -2.79 ± 0.23 | -1.97 ± 0.2
GAGGAGCAAUAUUACGAGUU | -3.46 ± 0.35 | -2.05 ± 0.21
GAGGAGCAAUAUUACGAUUG | – | -1.93 ± 0.29
GAGGAGCAAUAUUACGCAAU | -2.36 ± 0.36 | –
GAGGAGCAAUAUUACGCAGG | -1.91 ± 0.35 | -2.08 ± 0.36
GAGGAGCAAUAUUACGCGAG | – | -2.99 ± 0.35
GAGGAGCAAUAUUACGCGCA | -2.42 ± 0.2 | -0.968 ± 0.16
GAGGAGCAAUAUUACGCGCU | -3.28 ± 0.16 | -2.06 ± 0.16
GAGGAGCAAUAUUACGCUAC | -3.94 ± 0.37 | -2.66 ± 0.33
GAGGAGCAAUAUUACGCUAG | – | -1.8 ± 0.27

Sequence | self-splicing fitness (ln) (30 °C) | self-splicing fitness (ln) (37 °C)
GAGGAGCAAUAUUACGGUAU | -2.88 ± 0.35 | -1.25 ± 0.45
GAGGAGCAAUAUUACGUCAC | -2.85 ± 0.25 | –
GAGGAGCAAUAUUACGUCGA | -2.17 ± 0.16 | -1.61 ± 0.15
GAGGAGCAAUAUUACGUCUA | -2.04 ± 0.12 | -0.687 ± 0.15
GAGGAGCAAUAUUACGUCUC | – | -0.811 ± 0.49
GAGGAGCAAUAUUACGUCUG | -1.73 ± 0.15 | -1.07 ± 0.18
GAGGAGCAAUAUUACGUCUU | -3.65 ± 0.2 | -2.35 ± 0.23
GAGGAGCAAUAUUACGUGAA | -2.45 ± 0.3 | -1.74 ± 0.3
GAGGAGCAAUAUUACGUGAC | -1.97 ± 0.3 | -0.137 ± 0.26
GAGGAGCAAUAUUACGUUGU | – | -1.87 ± 0.33
GAGUAGCAAUAUUACGAACC | -1.17 ± 0.12 | -0.433 ± 0.14
GAGUAGCAAUAUUACGAACU | -0.979 ± 0.14 | -0.323 ± 0.23
GAGUAGCAAUAUUACGAAGA | -2.63 ± 0.3 | –
GAGUAGCAAUAUUACGAAUC | -2.47 ± 0.23 | -2.31 ± 0.24
GAGUAGCAAUAUUACGACUU | -3 ± 0.15 | -2.63 ± 0.24
GAGUAGCAAUAUUACGAGGU | -2.24 ± 0.35 | –
GAGUAGCAAUAUUACGAUGG | -2.33 ± 0.3 | -0.76 ± 0.28
GAGUAGCAAUAUUACGCUUG | -0.859 ± 0.088 | -0.313 ± 0.11
GAGUAGCAAUAUUACGGCUG | -1.21 ± 0.19 | -1.54 ± 0.27
GAGUAGCAAUAUUACGUAGA | -4.32 ± 0.28 | -2.18 ± 0.19
GAGUAGCAAUAUUACGUCAU | -2.58 ± 0.13 | -1.47 ± 0.13
GAGUAGCAAUAUUACGUGAU | -3.6 ± 0.33 | -2.12 ± 0.34
GAGUAGCAAUAUUACGUGUG | -2.73 ± 0.11 | -1.87 ± 0.12
GAUAAGCAAUAUUACGAAGA | -3.41 ± 0.24 | -1.7 ± 0.22
GAUAAGCAAUAUUACGACUA | -0.184 ± 0.086 | -0.149 ± 0.1
GAUAAGCAAUAUUACGAGCA | -2.12 ± 0.18 | -0.853 ± 0.16

— the supplement of paper PMC7877785
